How the values were obtained:
Assay in all cases: SPR; bivalent fitting model
[1] = molecular target: HAdV-D26 capsid (human adenovirus type 26, species D, replication-defective vector particle) (human adenovirus type 26 (species D))
[2] = molecular target: HAdV-B35 capsid (human adenovirus type 35, species B, replication-defective vector particle) (human adenovirus type 35 (species B))
[3] = molecular target: HAdV-C5 capsid (human adenovirus type 5, species C, replication-defective vector particle) (human adenovirus type 5 (species C), UniProt P04133 1-952)
Chain of HAdV-C5 capsid (human adenovirus type 5, species C, replication-defective vector particle) (P04133 whole entry, looked up): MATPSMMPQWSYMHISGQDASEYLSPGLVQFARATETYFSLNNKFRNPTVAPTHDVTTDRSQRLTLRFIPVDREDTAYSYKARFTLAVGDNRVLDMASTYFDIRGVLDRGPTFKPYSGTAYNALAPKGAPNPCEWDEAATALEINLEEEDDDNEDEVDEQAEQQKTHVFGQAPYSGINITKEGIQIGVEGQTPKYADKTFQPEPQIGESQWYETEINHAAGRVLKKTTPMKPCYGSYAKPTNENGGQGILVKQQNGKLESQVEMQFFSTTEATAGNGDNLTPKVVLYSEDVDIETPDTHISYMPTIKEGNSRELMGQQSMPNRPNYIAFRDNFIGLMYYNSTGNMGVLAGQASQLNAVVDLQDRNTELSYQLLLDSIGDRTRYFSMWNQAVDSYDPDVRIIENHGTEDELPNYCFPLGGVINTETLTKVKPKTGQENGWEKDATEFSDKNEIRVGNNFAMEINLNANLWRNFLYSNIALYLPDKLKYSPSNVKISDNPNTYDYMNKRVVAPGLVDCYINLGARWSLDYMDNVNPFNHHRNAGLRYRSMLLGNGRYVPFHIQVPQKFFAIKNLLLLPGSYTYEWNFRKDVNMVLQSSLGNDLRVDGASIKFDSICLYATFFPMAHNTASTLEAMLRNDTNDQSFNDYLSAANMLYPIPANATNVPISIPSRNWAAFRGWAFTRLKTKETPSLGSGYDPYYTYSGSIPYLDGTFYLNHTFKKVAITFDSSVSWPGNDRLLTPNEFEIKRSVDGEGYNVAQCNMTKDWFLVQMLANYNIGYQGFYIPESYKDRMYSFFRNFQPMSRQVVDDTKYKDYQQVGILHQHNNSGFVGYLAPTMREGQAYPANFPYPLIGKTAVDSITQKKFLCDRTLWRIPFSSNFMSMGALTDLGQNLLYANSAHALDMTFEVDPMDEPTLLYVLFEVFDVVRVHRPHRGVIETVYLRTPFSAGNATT

B1: human lactoferrin (natural protein)
chain: GRRRSVQWCAVSQPEATKCFQWQRNMRKVRGPPVSCIKRDSPIQCIQAIAENRADAVTLDGGFIYEAGLAPYKLRPVAAEVYGTERQPRTHYYAVAVVKKGGSFQLNELQGLKSCHTGLRRTAGWNVPIGTLRPFLNWTGPPEPIEAAVARFFSASCVPGADKGQFPNLCRLCAGTGENKCAFSSQEPYFSYSGAFKCLRDGAGDVAFIRESTVFEDLSDEAERDEYELLCPDNTRKPVDKFKDCHLARVPSHAVVARSVNGKEDAIWNLLRQAQEKFGKDKSPKFQLFGSPSGQKDLLFKDSAIGFSRVPPRIDSGLYLGSGYFTAIQNLRKSEEEVAARRARVVWCAVGEQELRKCNQWSGLSEGSVTCSSASTTEDCIALVLKGEADAMSLDGGYVYTAGKCGLVPVLAENYKSQQSSDPDPNCVDRPVEGYLAVAVVRRSDTSLTWNSVKGKKSCHTAVDRTAGWNIPMGLLFNQTGSCKFDEYFSQSCAPGSDPRSNLCALCIGDEQGENKCVPNSNERYYGYTGAFRCLAENAGDVAFVKDVTVLQNTDGNNNEAWAKDLKLADFALLCLDGKRKPVTEARSCHLAMAPNHAVVSRMDKVERLKQVLLHQQAKFGRNGSDCPDKFCLFQSETKNLLFNDNTECLARLHGKTTYEKYLGPQYVAGITNLKKCSTSPLLEACEFLRK
- Kd [1]: 2550 nM
- Kd [2]: 54000 nM
- Kd [3]: 800 nM

Reference: paper doi:10.1101/2020.06.03.131664 (2020)
